This note sets out measurements from patent publication US20240124576A1 (SHANGHAI JEMINCARE PHARMACEUTICAL, published 2024).

Numbering of substitutions follows the chain as printed.

The target in test [1] is T1, full length murine Siglec-15 on murine S15-CT26 cells (murine).
T1 construct: whole, on cells; also called murine Siglec-15 on the surface of a cell
The test is described as follows: flow cytometry on murine S15-CT26 cells, Alexa 488 secondary antibody. (A flow cytometer gives signals particle by particle.)

Test [2] has as its target T2, extracellular domain of monkey Siglec-15 on monkey S15ECD-293T cells (monkey).
T2 chain: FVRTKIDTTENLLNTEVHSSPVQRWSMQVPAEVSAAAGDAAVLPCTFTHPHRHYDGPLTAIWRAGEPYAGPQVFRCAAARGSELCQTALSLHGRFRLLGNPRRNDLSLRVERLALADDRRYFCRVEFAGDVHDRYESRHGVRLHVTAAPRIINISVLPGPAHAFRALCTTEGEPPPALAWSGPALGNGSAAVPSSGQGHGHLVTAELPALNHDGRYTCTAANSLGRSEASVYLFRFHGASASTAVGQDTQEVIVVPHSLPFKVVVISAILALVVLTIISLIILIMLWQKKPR
Kind of test: flow cytometry on monkey S15ECD-293T cells, Alexa 488 secondary antibody.

The target in test [3] is T3, human Siglec-15 (Acro, Cat. No. SG5-H52H3) (human, UniProt Q6ZMC9 20-263).
T3 construct: Bought reagent used as the analyte in the Octet assay; also called antigen
T3 sequence (looked up): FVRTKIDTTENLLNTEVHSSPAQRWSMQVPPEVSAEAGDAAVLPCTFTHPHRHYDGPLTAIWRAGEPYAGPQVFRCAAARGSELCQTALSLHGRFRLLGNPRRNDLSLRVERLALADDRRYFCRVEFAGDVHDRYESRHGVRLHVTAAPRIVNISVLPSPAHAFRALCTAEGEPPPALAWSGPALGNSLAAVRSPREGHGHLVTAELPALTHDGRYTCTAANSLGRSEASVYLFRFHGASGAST
The test is described as follows: BLI (Octet RED96e), antibody captured on AHC sensor, 30 nM antigen, 1:1 fit; third assay. As for the experimental part: (§1) Affinity of Siglec-15 binding protein of the present application to human Siglec-15 (Acro, Cat. No.: SG5-H52H3) was determined using Octet RED96e (Fortebio), both of the antigen and the Siglec-15 binding protein of the present application were diluted with 1×PBST (1×PBS: Sangon, B548117-0500; 0.02% Tween 20: Sigma-aldrich, P1379). The antigen is used at a concentration of 30 nM and the Siglec-15 binding protein of the present application is used at a concentration of 33.3 nM.
(§2) First, a sample was added to a 96-well plate (Greiner bio-one, 655209) in a system of 200 μL/well. Software parameters were then set, the plate temperature was set to 30° C., and the frequency at which the standard kinetic signal was collected was 5.0 Hz. Next, the AHC sensor (Fortébio, Cat. No.: 18-0015) was pre-wetted with 1×PBST for 10 min, then the sample was loaded on the machine for detection, with each cycle containing the following steps: 1) immersing the sample in buffer for 60 s; 2) detecting whether the antigen has non-specific binding to the sensor; 3) regenerating in a 10 mM glycine solution at pH 1.7; 4) immersing in buffer for 60 s; 5) immobilizing the Siglec-15 binding protein of the present application on the sensor for 20 s; 6) immersing the sensor in buffer for 180 s; 7) binding the antigen to the Siglec-15 binding protein of the present application for 180 s; 8) dissociating the antigen with Siglec-15 binding protein of the present application for 10 min; and 9) regenerating the sensor.
(§3) The equilibrium dissociation constant (KD) of the Siglec-15 binding protein of the present application was calculated by determining the binding rate constant (kon) and dissociation rate constant (kdis) of the antigen-Siglec-15 binding protein of the present application in a 1:1 binding manner using Data Analysis 12.0 software fromx Fortebio.
(In BLI a coated tip is dipped into the sample, and binding shifts an interference pattern.)

The target of test [4] is T3, human Siglec-15 (Acro, Cat. No. …). Kind of test: BLI (Octet RED96e), antibody captured on AHC sensor, 30 nM antigen, 1:1 fit; second assay. Set-up: Response value: unit not given here. As for the experimental part:
as §1, §2, §3

Test [5] concerns the target T4, extracellular domain of human Siglec-15 with PDGFR transmembrane domain on human S15ECD-293T cells (human, UniProt Q6ZMC9 20-263; P09619 513-561).
T4 construct: range 20-263;range 513-561; also called human Siglec-15 on the surface of a cell
The test is described as follows: flow cytometry on human S15ECD-293T cells, Alexa 488 secondary antibody; Ab9 on human S15ECD-293T cells. An excerpt: (§4) The purified Siglec-15 binding protein of the present application was identified by flow cytometry for its function to bind to human S15ECD-293T cells of the present application. Human S15ECD-293T cells prepared by the methods of the present application can be expanded to 90% confluence in 15 cm cell culture dishes, media were pipetted completely, the cells were washed once with PBS buffer (Thermo Fisher, 10010049), then treated with enzyme-free cell dissociation buffer (Versene solution, Thermo Fisher, 15040066) and harvested. The cells were washed twice with PBS buffer and counted, the desired quantity of cells was removed for centrifugation, the cells were resuspended to 2×10^6 cells/ml with FACS buffer (PBS with 2% FBS). After incubation at room temperature for 15 min, the cell suspension was added to a U-shaped 96-well plate (Corning, 3798) at 50 μL/well. The Siglec-15 binding proteins of the present application were serially diluted in FACS buffer, the dilution was added to the above 96-well plate at 50 μL/well and incubated at 4° C. for 1 h. […] The cells were resuspended in 30 μL/well FACS buffer, and detected and analyzed by flow cytometry intellycite plus (Sartorius). […]

The target in test [6] is T4, extracellular domain of human Siglec-15 …. Kind of test: flow cytometry on human S15ECD-293T cells, Alexa 488 secondary antibody; Ab15 on human S15ECD-293T cells.
From the text: as §4

B1: Ab9, purified Siglec-15 binding protein in the form of IgG1 (antibody, V domains shown)
VH: EVQLLESGGGLVQPGGSLRLSCAASGFTFSSYAMSWVRQAPGKGLEWVSTISGGGGSTYYADSVKGRFTISRDNSKNTLYLQMNSLRAEDTAVYYCAKAIGSSWYSDAFDLWGQGTMVTVSS
VL: DIQMTQSPSSVSASVGDRVTITCRASQDISDWLAWYQQKPGKAPKLLIYVASSLQSGVPSRFSGSGSGTDFTLTISSLQPEDFATYYCQQSYSIPYTFGQGTKLEIKR
notes: Expressed in ExpiCHO cells in the form of IgG1
As usually defined, the EC50 is the concentration needed to bring the measured effect to its halfway point. What is called Kd is the free concentration of one partner at which half of the binding sites on the other are occupied at equilibrium, for simple one-to-one binding. As usually defined, the koff is the rate constant with which the complex falls apart. One may read the kon as the rate constant with which the complex forms. In test [1], B1 returned an EC50 of 3.25 nM. Further, the response in test [2] was half-maximal at 0.922 nM (EC50). In test [3], this molecule showed a Kd of 0.0691 nM, a koff of 3.59e-05 s⁻¹ and a kon of 519000 M⁻¹ s⁻¹. In test [4], the affinity, expressed as Kd, was 0.0873 nM; the Response value turned out to be 0.259; the koff worked out at 3.88e-05 s⁻¹; the kon came to 445000 M⁻¹ s⁻¹. The EC50 in test [5] is 1.52 nM.

B2: Ab15, purified Siglec-15 binding protein in the form of IgG1 (antibody, V domains shown)
VH: B1 VH with S52T, G56E
VL: B1 VL with D31S, S53Y, L54I, Q55H
notes: as for B1
Consider B2, for which the EC50 came out at 1.83 nM in test [1], 0.475 nM in test [2] and 0.475 nM in test [6]. Further, the Kd came out at 0.0916 nM in test [3] and 0.073 nM in test [4]. Further, the koff in test [3] worked out at 4.35e-05 s⁻¹; in test [4], 3.93e-05 s⁻¹. Further, the kon in test [3] worked out at 475000 M⁻¹ s⁻¹; in test [4] it was 538000 M⁻¹ s⁻¹. In test [4], this molecule displayed a Response value of 0.361.
